According to patent US8697062B2, “Compositions and methods for ribonuclease-based therapeutics” (Quintessence Biosciences, Inc., priority 2007, dated 2014):
Positions count from the first letter of the chain named. Names and notes keep the numbering of the source.

Legend:
[1] = system: A549 lung carcinoma cells; assay: xenograft model of non-small cell lung cancer (A549) in nude mice; format: in vivo; conditions: FIG. 9
Experimental: Cells from a non-small cell lung cancer cell line (A549) were grown in nine T175 flasks in F12K media and 10% fetal calf serum until the cells were confluent. 4.5×10^6 cells ([…]) were injected into the right rear flank of 4-5 week old male homozygous (nu/nu) nude mice (Harlan, Madison Wis.). Tumors were allowed to grow to an average size of ≧75 mm^3 before treatments were initiated. Animals of each tumor type, with the properly-sized tumors, were divided into treatment groups, including one set of animals treated weekly with vehicle (phosphate buffered saline, PBS). The vehicle and the test agents were all administered by intraperitoneal injection. Each animal was weighed twice a week during treatment. The tumors were measured twice weekly using calipers. Tumor volume (mm^3) was determined by using the formula for an ellipsoid sphere:
[formula] The percent tumor growth inhibition was calculated using the formula:
[formula] […] The efficacy is similar to that of an approved cancer drug, cisplatin.

[2] = system: DU145 human prostate cancer cells; assay: xenograft model of prostate cancer (DU145) in nude mice; format: in vivo
Experimental: Prostate cancer cells (DU145) were implanted into the right rear flank of 5-6 week old male homozygous (nu/nu) nude mice (Harlan). Tumors were allowed to grow to an average size of ≧75 mm^3 before treatments were initiated. Animals of each tumor type, with the properly-sized tumors, were divided into treatment groups. All the test compounds were diluted in PBS (drug vehicle), and one set of animals treated with vehicle (PBS) on the schedule with greatest frequency in the current study served as the negative control. All RNase treatments in the xenograft model are administered by intraperitoneal injection. Treatment with all agents is ongoing throughout the entire experiment (e.g., a 6 week long experiment with 1×wk dosing results in 6 total doses). Tumors were measured twice weekly using calipers. Tumor volume (mm^3) was determined by using the equation 4. The percent tumor growth inhibition was calculated using equation 5.

human RI = target: T1, human RI (Homo sapiens, UniProt P13489); assay: Kd^c | nM
T1 sequence (P13489 whole entry, looked up): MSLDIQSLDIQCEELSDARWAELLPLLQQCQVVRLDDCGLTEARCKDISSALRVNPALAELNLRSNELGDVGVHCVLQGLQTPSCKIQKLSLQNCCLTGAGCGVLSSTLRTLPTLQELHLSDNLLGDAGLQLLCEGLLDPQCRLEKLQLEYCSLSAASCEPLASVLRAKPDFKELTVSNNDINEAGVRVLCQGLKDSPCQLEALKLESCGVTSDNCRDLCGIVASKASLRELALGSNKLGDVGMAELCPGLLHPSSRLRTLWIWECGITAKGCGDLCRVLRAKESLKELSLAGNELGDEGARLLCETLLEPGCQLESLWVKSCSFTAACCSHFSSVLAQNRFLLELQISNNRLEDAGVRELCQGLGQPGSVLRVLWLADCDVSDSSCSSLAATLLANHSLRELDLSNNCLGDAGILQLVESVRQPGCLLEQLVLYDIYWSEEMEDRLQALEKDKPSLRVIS
Experimental: Table printed on a drawing sheet, FIGURE 2
Head of the field: Kd^c | nM
Footnotes: ^aValues of Tm (± 2 °C) were determined in PBS by UV spectroscopy. The Tm values for G88R RNase and ONC in PBS are from Leland et al. (1998, Proc. Natl. Acad. Sci. 98:10407-10412). / ^bValues of kcat/KM (± SE) are for the catalysis of 6-FAM~dArU(dA)2~6-TAMRA cleavage at room temperature in 0.10 M MES-NaOH buffer (pH 6.0) containing NaCl (0.10 M) except for the kcat/KM (± SE) of ONC . The kcat/KM value for ONC is for the catalysis of 6-FAM~dArUdGdA~6-TAMRA cleavage at room temperature in 0.020 M MES-NaOH buffer (pH 6.0) containing NaCl (0.010 M). / ^cValues of Kd (± SE) are for the complex with human RI at room temperature. The Kd value for RNase A is from Lee et al. (1989, Biochem. 28:225-230). The Kd value for G88R RNase A is from Lavis et al. (2007, Anal. Biochem. 79:6775-6782). The Kd value for ONC is an estimate from Wu et al. (1993, J. Biol. Chem. 268:10686-10693). / ^dValues of IC50 (± SE) are for incorporation of [methyl-^3H]thymidine into the DNA of K-562 cells. […]
First copying reader's note: The table body is printed very coarsely, so many digits are uncertain; the mark ^h in the (kcat/KM)cyto column has no footnote on the sheet, and the IC50 footnote is lettered d.
Where the first naming reader finds the target: footnote: Values of Kd (± SE) are for the complex with human RI at room temperature.

hRI = target: T2, hRI (Homo sapiens, UniProt P13489); conditions: value used as basis of the competition assay; Rutkoski et al., 2005; cited from earlier work
T2 sequence (P13489 1-461): T1 sequence (P13489 whole entry, looked up)

## N.N.[Cl][Pt][Cl] [cisplatin, reference compound]
[1]; 6 mg/kg weekly, compared with 60 kDa mPEG2 G89C RNase 1
  efficacy in reducing tumor volume: similar

## CC(=O)O[C@@]12CO[C@@H]1C[C@H](O)[C@@]1(C)C(=O)[C@H](O)C3=C(C)[C@@H](OC(=O)[C@H](O)[C@@H](NC(=O)OC(C)(C)C)c4ccccc4)C[C@@](O)([C@@H](OC(=O)c4ccccc4)[C@H]21)C3(C)C [docetaxel, reference compound]
[2]; 8 mg/kg weekly, compared to a control, FIG. 5
  tumor volume: decrease tumor volumes to similar levels

B1: 20 kDa mPEG2-G88C RNase A: G88C RNase A modified with 20 kDa-mPEG2 maleimide (branched) (conjugate, UniProt P61823 27-150, looked up, variant G88C)
Ribonuclease pancreatic: KETAAAKFERQHMDSSTSAASSSNYCNQMMKSRNLTKDRCKPVNTFVHESLADVQAVCSQKNVACKNGQTNCYQSYSTMSITDCRETCSSKYPNCAYKTTQANKHIIVACEGNPYVPVHFDASV
modifications: 20 kDa branched mPEG2 maleimide
Human RI
  Kd: 37 ± 2.4 nM
[2]; 75 mg/kg, 1 time per week, intraperitoneal, FIG. 5
  tumor volume: reduce tumor volumes

B2: fluorophore-labeled G88R variant of RNase A: fluorophore-labeled G88R variant of RNase A used as probe in the ribonuclease-inhibitor binding assay (conjugate, UniProt P61823 27-150, looked up, variant G88R)
Ribonuclease pancreatic: B1 Ribonuclease pancreatic with C88R
modifications: fluorophore label
hRI
  Kd: 1.4 nM

B3: 2 kDa mPEG-G88C RNase A: G88C RNase A modified with 2 kDa-mPEG maleimide (conjugate, UniProt P61823 27-150, looked up, variant G88C)
Ribonuclease pancreatic: B1 Ribonuclease pancreatic
modifications: 2 kDa mPEG maleimide
notes: G88C RNase A modified with 2 kDa-mPEG maleimide
[2]; 15 mg/kg twice weekly, intraperitoneal, FIG. 4B
  toxicity of the treatment as reflected by average body weight: lack of toxicity
[2]; 15 mg/kg, 2 times per week, intraperitoneal, FIG. 4
  tumor volume: reduction in tumor volume over time
[2]; 15 mg/kg, 2 times per week, intraperitoneal, FIG. 4, listed as 2 kDa mPEG G88C RNase A
  tumor volume: reduce tumor volumes

B4: 60 kDa mPEG2-G89C RNase 1: G89C RNase 1 modified with 60 kDa-mPEG2 maleimide (branched) (conjugate, UniProt P07998 29-156, looked up, variant G89C)
Ribonuclease pancreatic: KESRAKKFQRQHMDSDSSPSSSSTYCNQMMRRRNMTQGRCKPVNTFVHEPLVDVQNVCFQEKVTCKNGQGNCYKSNSSMHITDCRLTNCSRYPNCAYRTSPKERHIIVACEGSPYVPVHFDASVEDST
modifications: 60 kDa branched mPEG2 maleimide
[1]; 75 mg/kg weekly, intraperitoneal, versus control
  tumor volume: decreases tumor volume
